Assay results reported in patent US20250090676A1 (SUTRO BIOPHARMA, published 2025).

Key:
[1] = target: T1, human folate receptor alpha (hFOLR1) (human, UniProt P15328 25-234); assay: cell-based or functional assay
[2] = target: T2, cynomolgus monkey folate receptor alpha (cynomolgus monkey, UniProt P15328 25-234 (human entry)); assay: FACS, CHO-cFOLR1 cells
T2 construct: Expressed on the surface of stably transfected CHO cells; also called cyno FolR1; CHO-cyno FolR1

[3] = target: T3, murine folate receptor alpha (mouse, UniProt P35846 25-232); assay: FACS, CHO-mFOLR1 cells;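 note: flow cytometry binding of serially diluted test antibodies to transfected CHO cells on ice, mean fluorescence intensity, parental CHO cells give background, Kd from one-site specific binding fit with Hill slope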
T3 construct: Expressed on the surface of stably transfected CHO cells; also called mouse FolR1; CHO-mouse FolR1
T3 sequence (P35846 25-232 limits assumed): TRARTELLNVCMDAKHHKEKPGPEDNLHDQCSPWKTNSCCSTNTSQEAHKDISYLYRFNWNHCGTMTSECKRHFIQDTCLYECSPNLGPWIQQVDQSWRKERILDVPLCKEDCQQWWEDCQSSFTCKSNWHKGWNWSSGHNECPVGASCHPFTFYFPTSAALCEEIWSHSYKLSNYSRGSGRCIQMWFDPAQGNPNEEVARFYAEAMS

[4] = target: T1, human folate receptor alpha (hFOLR1); assay: FACS, CHO-hFOLR1 cells;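 note: flow cytometry of serially diluted antibodies binding CHO cells stably expressing the receptor, 60 min on ice, mixed with dye-tagged parental CHO as background control, one-site specific fit with Hill slope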

T1 sequence (P15328 25-234 limits assumed): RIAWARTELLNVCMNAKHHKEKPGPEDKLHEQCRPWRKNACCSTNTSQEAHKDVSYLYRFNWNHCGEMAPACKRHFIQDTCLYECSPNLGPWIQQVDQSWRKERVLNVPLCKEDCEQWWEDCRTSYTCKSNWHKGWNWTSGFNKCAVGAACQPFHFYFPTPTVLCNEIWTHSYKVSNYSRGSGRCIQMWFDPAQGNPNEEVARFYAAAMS
T2 sequence (P15328 other isoform, or with tags, fused parts or gaps limits assumed): as the sequence (P15328 25-234 limits assumed) above, with I2T, W4R, R37K, Q117R, A146P, H171Y counted along it

Binder | Bmax (MFI) [2] [MFI] | Kd [2] [nM] | binding result [3] | Bmax (MFI) [4] [MFI] | Kd [4] [nM] | Bmax (MFI) [3] [MFI] | Kd [3] [nM] | Igrov, 2° Antibody Cell Killing, Nb-SC239: EC50 [1] [nM] | Igrov, 2° Antibody Cell Killing, Nb-SC239: Span [1] [%] | KB, 2° Antibody Cell Killing, Nb-239: EC50 [1] [nM] | KB, 2° Antibody Cell Killing, Nb-239: Span [1] [%]
SRP1848-D07 (antibody, V domains shown, HC variant paired with trastuzumab LC, cell-free expressed, HIS- and FLAG-tagged; also called Antibody 28) VH: EVQLVESGGGLVQPGGSLRLSCAASGFNISKYYIHWVRQAPGKGLEWVGGISPNDGYTDYADSVKGRFAISADTSKNTAYLQMNSLRAEDTAVYYCARGFWAWRSGYGYYLDYWGQGTLVTVSS VL: not shown | 24300 | 0.92 | no binding | 25700 | 0.77 | – | – | 0.032 | 71 | 0.075 | 94
SRP1848-E01 (antibody, V domains shown, HC variant paired with trastuzumab LC, cell-free expressed, HIS- and FLAG-tagged; also called Antibody 31) VH: EVQLVESGGGLVQPGGSLRLSCAASGFNITNKYIHWVRQAPGKGLEWVGGITPFDGFTDYADSVKGRFTISADTSKNTAYLQMNSLRAEDTAVYYCARGSWSWPAGYGYYQDYWGQGTLVTVSS VL: not shown | 22400 | 0.96 | no binding | 26400 | 1.01 | – | – | 0.029 | 72 | 0.088 | 92
SRP1848-F01 (antibody, V domains shown, HC variant paired with trastuzumab LC, cell-free expressed, HIS- and FLAG-tagged; also called Antibody 37) VH: EVQLVESGGGLVQPGGSLRLSCAASGFNIRTYSIHWVRQAPGKGLEWVGSIFPNDGTTDYADSVKGRFTISADTSKNTAYLQMNSLRAEDTAVYYCARGSWAWRAGYSYYLDYWGQGTLVTVSS VL: not shown | 21500 | 0.43 | – | 25200 | 0.56 | 3750 | 1.8 | 0.018 | 69 | 0.047 | 91
SRP1848-F05 (antibody, V domains shown, HC variant paired with trastuzumab LC, cell-free expressed, HIS- and FLAG-tagged; also called Antibody 40) VH: EVQLVESGGGLVQPGGSLRLSCAASGFNISKSSIHWVRQAPGKGLEWVGEIYPNDGSTDYADSVKGRFTISADTSKNTAYLQMNSLRAEDTAVYYCARGSWAWRSGYSYFLDYWGQGTLVTVSS VL: not shown | 24700 | 0.61 | – | 27200 | 0.72 | 5100 | 18 | 0.015 | 74 | 0.061 | 94
SRP1848-E07 (antibody, V domains shown, HC variant paired with trastuzumab LC, cell-free expressed, HIS- and FLAG-tagged; also called Antibody 36) VH: EVQLVESGGGLVQPGGSLRLSCAASGFNIRKSSIHWVRQAPGKGLEWVGEIFPYDGSTDYADNVKGRFTISADTSKNTAYLQMNSLRAEDTAVYYCARGAWSWRSGYGYYIDYWGQGTLVTVSS VL: not shown | 20400 | 0.23 | – | 27300 | 0.54 | 11800 | 1.2 | 0.013 | 73 | 0.059 | 94
SRP1848-D09 (antibody, V domains shown, HC variant paired with trastuzumab LC, cell-free expressed, HIS- and FLAG-tagged; also called Antibody 29) VH: EVQLVESGGGLVQPGGSLRLSCAASGFNISNYYIHWVRQAPGKGLEWVGGISPNDGYTDYADSVKGRFTISADTSKNTAYLQMNSLRAEDTAVYYCARGSWSWRHGYGYYLDYWGQGTLVTVSS VL: not shown | 21300 | 0.65 | no binding | 25000 | 0.46 | – | – | 0.023 | 70 | 0.042 | 91
SRP1848-D10 (antibody, V domains shown, HC variant paired with trastuzumab LC, cell-free expressed, HIS- and FLAG-tagged; also called Antibody 30) VH: EVQLVESGGGLVQPGGSLRLSCAASGFNISRNSIHWVRQAPGKGLEWVGWISPNDGTTDYADSVKGRFTISADGSKNTAYLQMNSLRAEDTAVYYCARGAWSWRSGYGYYIDYWGQGTLVTVSS VL: not shown | 20600 | 0.52 | – | 26500 | 0.48 | 1860 | 13 | 0.012 | 54 | 0.016 | 90
SRP1848-E05 (antibody, V domains shown, HC variant paired with trastuzumab LC, cell-free expressed, HIS- and FLAG-tagged; also called Antibody 34) VH: EVQLVESGGGLVQPGGSLRVSCAASGFNIGVYYIHWVRQAPGKGLEWVGGITPNDGYTDYADSVKGRFTISADTSKNTAYLQMNSLRAEDTAVYYCARGFWAWRSGYGYYLDYWGQGTLVTVSS VL: not shown | 28200 | 0.55 | no binding | 27300 | 0.46 | – | – | 0.027 | 78 | 0.071 | 95
SRP1848-E02 (antibody, V domains shown, HC variant paired with trastuzumab LC, cell-free expressed, HIS- and FLAG-tagged; also called SKP1848-E02; Antibody 32) VH: EVQLVESGGGLVQPGGSLRLSCAASGFNIGKYSIHWVRQAPGKGLEWVGEIYPNDGNTDYADSVKGRFTISADTSKNTAYLQMNSLRAEDTAVYYCARGSWSWRSGYGYYLDYWGQGTLVTVSS VL: not shown | 18700 | 0.59 | – | 23800 | 0.53 | 1470 | 21 | 0.025 | 71 | 0.046 | 93
SRP1848-F02 (antibody, V domains shown, HC variant paired with trastuzumab LC, cell-free expressed, HIS- and FLAG-tagged; also called Antibody 38) VH: EVQLVESGGGLVQPGGSLRLSCAASGFNIRTYSIHWVRQAPGKGLEWVGSIFPNDGTTDYADSVKGRLTISADTSKNTAYLQMNSLRAEDTAVYYCARGSWSWQAGYGYYLDYWGQGTLVTVSS VL: not shown | 14900 | 0.19 | – | 25700 | 0.62 | 2740 | 2.6 | 0.009 | 54 | 0.054 | 92

Second part, led by results:

Bmax (MFI) [2] [MFI] | Kd [2] [nM] | binding result [3] | Bmax (MFI) [4] [MFI] | Kd [4] [nM] | Bmax (MFI) [3] [MFI] | Kd [3] [nM] | Binder | Igrov, 2° Antibody Cell Killing, Nb-SC239: EC50 [1] [nM] | Igrov, 2° Antibody Cell Killing, Nb-SC239: Span [1] [%] | KB, 2° Antibody Cell Killing, Nb-239: EC50 [1] [nM] | KB, 2° Antibody Cell Killing, Nb-239: Span [1] [%]
18700 | 0.56 | – | 27400 | 0.58 | 1390 | 8.8 | SRP1848-F07 (antibody, V domains shown, HC variant paired with trastuzumab LC, cell-free expressed, HIS- and FLAG-tagged; also called Antibody 42) VH: EVQLVESGGGLVQPGGSLRLSCAASGFNISNHSIHWVRQAPGKGLEWVGEIYPNDGITDYADSVKGRFTISADTSKNTAYLQMNSLSAEDTAVYYCARGSWDWRSGYSYYLDYWGQGTLVTVSS VL: not shown | 0.018 | 71 | 0.057 | 92
21000 | 1.07 | no binding | 26500 | 0.91 | – | – | SRP1848-F08 (antibody, V domains shown, HC variant paired with trastuzumab LC, cell-free expressed, HIS- and FLAG-tagged; also called Antibody 43) VH: EVQLVESGGGLVQPGGSLRLSCAAGGFNISNHSIHWVRQAPGKGVEWVGEIYPVDGITDYADSVKGRFTISADTSKNTAYLRMNSLRAEDTAVYYCARGSWYWQSGYSYYLDYWGQGTLVTVSS VL: not shown | 0.024 | 77 | 0.061 | 94
26500 | 0.86 | no binding | 25600 | 0.87 | – | – | SRP1848-F06 (antibody, V domains shown, HC variant paired with trastuzumab LC, cell-free expressed, HIS- and FLAG-tagged; also called Antibody 41) VH: EVQLVESGGGLVQPGGSLRLSCAASGFNISLSYIHWVRQAPGKGLEWVGGISPIDGNTDYADSVKGRFTISADTSKNTAYLQMNSLRAEDTAVYYCARGFWAWRSGYGYYLDYWGQGTLVTVSS VL: not shown | 0.032 | 77 | 0.066 | 94
21800 | 0.47 | – | 26800 | 0.75 | 1760 | 4.6 | SRP1848-F11 (antibody, V domains shown, HC variant paired with trastuzumab LC, cell-free expressed, HIS- and FLAG-tagged; also called Antibody 46) VH: EVQLVESGGGLVQPGGSLRLSCAASGFNISNNYIHWVRQAPGKGLEWVGGITPIDGNTDYADSVKGRFTISADTSMNTAYLQMNSLRAEDTAVYYCARGSWYWRAGYGYYLDYWGQGALVTVSS VL: not shown | 0.017 | 70 | 0.054 | 91
24200 | 0.75 | – | 23800 | 0.36 | 1670 | 90.7 | SRP1848-F09 (antibody, V domains shown, HC variant paired with trastuzumab LC, cell-free expressed, HIS- and FLAG-tagged; also called Antibody 44) VH: EVQLVESGGGLVQPGGSLRLSCAASGFNISNHYIHWVRQAPGKGLEWVGGISPLDGYTDYADSVKGRFTISADTSKNTAYLQMNSLRAEDTAVYYCARGAWSWRSGYGYYIDYWGQGTLVTVSS VL: not shown | 0.05 | 79 | 0.056 | 93
20700 | 0.4 | – | 25600 | 0.36 | 1740 | 6.9 | SRP1848-F10 (antibody, V domains shown, HC variant paired with trastuzumab LC, cell-free expressed, HIS- and FLAG-tagged; also called Antibody 45) VH: EVQLVESGGGLVQPGGSLRLSCAASGFNISNNSIHWVRQAPGKGLEWVGSIFPNDGYTDYADSVKGRFTISADTSKNTAYLQMNSLRAEDTAVYYCARGSWFWRSGYGYYLDYWGQGTLVTVSS VL: not shown | 0.009 | 68 | 0.038 | 94
